Measurements published in patent US20150239980A1 (NEOTOPE BOSCIENCES, published 2015).

T1: recombinant hMCAM-His (human, UniProt P43121 24-559)
T1 construct: not shown: His tag
T1 chain: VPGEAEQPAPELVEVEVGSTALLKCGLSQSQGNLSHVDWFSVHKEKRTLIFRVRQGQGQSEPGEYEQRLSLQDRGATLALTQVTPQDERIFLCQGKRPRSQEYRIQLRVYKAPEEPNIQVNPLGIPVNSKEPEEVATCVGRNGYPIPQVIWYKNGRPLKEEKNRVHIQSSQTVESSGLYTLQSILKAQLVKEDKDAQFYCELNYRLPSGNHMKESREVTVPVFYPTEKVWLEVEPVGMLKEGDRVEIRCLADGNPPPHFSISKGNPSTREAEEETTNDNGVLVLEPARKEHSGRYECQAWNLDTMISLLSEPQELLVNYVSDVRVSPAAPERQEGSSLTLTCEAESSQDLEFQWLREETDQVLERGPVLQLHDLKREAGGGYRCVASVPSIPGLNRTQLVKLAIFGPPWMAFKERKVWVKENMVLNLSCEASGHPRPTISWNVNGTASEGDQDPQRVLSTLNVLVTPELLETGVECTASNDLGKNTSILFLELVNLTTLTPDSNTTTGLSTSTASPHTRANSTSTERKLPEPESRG

T2: human MCAM (melanoma cell adhesion molecule) expressed on transfected CHO cells (human, UniProt P43121 24-646)
T2 construct: also called hMCAM; CD146
T2 chain: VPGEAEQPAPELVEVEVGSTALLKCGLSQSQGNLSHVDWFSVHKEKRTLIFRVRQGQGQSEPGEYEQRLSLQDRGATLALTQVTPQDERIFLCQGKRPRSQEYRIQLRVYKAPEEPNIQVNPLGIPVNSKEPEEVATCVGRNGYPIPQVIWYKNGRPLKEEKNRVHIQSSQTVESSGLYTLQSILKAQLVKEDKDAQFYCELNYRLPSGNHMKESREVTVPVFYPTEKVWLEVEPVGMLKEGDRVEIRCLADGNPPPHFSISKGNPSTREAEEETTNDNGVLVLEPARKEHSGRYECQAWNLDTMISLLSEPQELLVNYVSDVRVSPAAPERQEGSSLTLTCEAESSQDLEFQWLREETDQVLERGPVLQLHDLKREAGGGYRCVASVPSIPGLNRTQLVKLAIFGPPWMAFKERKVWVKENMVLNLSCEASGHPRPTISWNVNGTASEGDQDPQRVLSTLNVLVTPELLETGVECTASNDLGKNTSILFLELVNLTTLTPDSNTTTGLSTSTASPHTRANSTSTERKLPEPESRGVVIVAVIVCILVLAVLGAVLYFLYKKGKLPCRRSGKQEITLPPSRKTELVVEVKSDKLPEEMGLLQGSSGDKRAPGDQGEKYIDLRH

B1: chimeric 1749 TM (antibody, V domains shown)
VH: DVKLVESGGDLVKPGGSLKLSCAASGFTFSSYIMSWVRQTPEKRLEWVATISSGGSSTYYPDSVKGRFTISRDNAKNTLYLQMSSLKSEDTAMYYCTRDDDYDVKVFAYWGQGTLVTVSA
VL: DIVMSQSPSSLAVSAGEKVTMNCKSSRSLLNSRIRKNYLAWYQQKPGQSPKLLIYWASTRESGVPDRFTGSGSGTDFTLTISSVQAEDLAVYYCKQSYNLLTFGAGTKLELK
B2: h1749VH1 + h1749VL2 (antibody, human IgG1, V domains shown)
VH: EVQLVESGGGLVQPGGSLRLSCAASGFTFSSYIMSWVRQAPGKGLEWVATISSGGSSTYYPDSVKGRFTISRDNAKNSLYLQMNSLRAEDTAVYYCTRDDDYDVKVFAYWGQGTMVTVSS
VL: DIVMTQSPDSLAVSLGERATINCKSSRSLLNSRIRKNYLAWYQQKPGQPPKLLIYWASTRESGVPDRFTGSGSGTDFTLTISSLQAEDVAVYYCKQSYNLLTFGQGTKVEIK
B3: h1749VH2 + h1749VL1 (antibody, human IgG1, V domains shown)
VH: EVQLVESGGGLVQPGGSLRLSCAASGFTFSSYIMSWVRQAPGKRLEWVATISSGGSSTYYPDSVKGRFTISRDNAKNSLYLQMNSLRAEDTAVYYCTRDDDYDVKVFAYWGQGTMVTVSS
VL: DIVMTQSPDSLAVSLGERATINCKSSRSLLNSRIRKNYLAWYQQKPGQPPKLLIYWASTRESGVPDRFSGSGSGTDFTLTISSLQAEDVAVYYCKQSYNLLTFGQGTKVEIK
notes: also called h1749VH2VL1
B4: h2107_VH4 + h2107_VL2 (antibody, human IgG1, V domains shown)
VH: QVTLKESGPVLVKPTETLTLTCTVSGFSLTSSGVSWVRQPPGKALEWIAAISSGGSTYYNSAFKSRLTISPDTSKSQVVLTMTNMDPVDTATYYCARHRPFYFDYWGQGTLVTVSS
VL: DIQMTQSPSSLSASVGDRVTITCKGSQNIYKSLAWFQLKPGKVPKLLIYDANSLQTGIPSRFSGSGSGTDFTLTISSLQPEDVATYYCQQYYSGYTFGGGTKVEIK
B5: h2107_VH6 + h2107_VL2 (antibody, human IgG1, V domains shown)
VH: QVTLKESGPVLVKPTETLTLTCTVSGFSLTSNAVSWVRQPPGKALEWIAAISSGGSTYYNSAFKSRLTISRDTSKSQVVLTMTNMDPVDTATYYCARHRPFYFDYWGQGTLVTVSS
VL: DIQMTQSPSSLSASVGDRVTITCKGSQNIYKSLAWFQLKPGKVPKLLIYDANSLQTGIPSRFSGSGSGTDFTLTISSLQPEDVATYYCQQYYSGYTFGGGTKVEIK

Tests used:
recombinant hMCAM-His [1] = target: T1, recombinant hMCAM-His; assay: competitive ELISA on hMCAM-His, competitor biotinylated rodent or chimeric 1749; Expt. #2; vs rodent 1749
Experimental: (§1) ELISA plates were coated with recombinant hMCAM-His, and blocked with casein buffer to prevent non-specific binding. Biotinylated rodent or chimeric antibody was added at a subsaturating concentration, in the presence or absence of 3× increasing concentrations of unlabeled competitor (humanized antibody, rodent, or chimeric). After washing to remove unbound antibody, streptavidin HRP was added to allow detection of the biotinylated antibody. The ELISA was developed with TMB substrate and the OD450 was measured. The IC50 of the unlabeled competitor was determined using the GraphPad Prism5 software.

recombinant hMCAM-His [2] = target: T1, recombinant hMCAM-His; assay: ForteBio Octet Red, hMCAM-His analyte; Forte column 1; vs rodent 1749
Experimental: (§2) The affinities were measured using the ForteBio Octet Red. Anti-human Fc sensors were used to capture the humanized antibodies, and several concentrations of hMCAMHis analyte were used to determine the affinity using a 1:1 fitting model.

recombinant hMCAM-His [3] = target: T1, recombinant hMCAM-His; assay: summary of ForteBio and competitive ELISA on hMCAM-His; vs rodent 1749
Experimental: as §1, §2

[4] = target: T2, human MCAM (melanoma cell adhesion …); assay: laminin/FACS on hMCAM CHO cells, competitor laminin 411; Expt#2; vs rodent 1749
Experimental: (§3) Following incubation for 30-45 minutes, the cells were washed and anti-laminin conjugated to AF650 (NovusBio) was added to detect the bound laminin. The cells were run on a flow cytometer to measure the laminin binding signal.

[5] = target: T2, human MCAM (melanoma cell adhesion …); assay: summary of laminin blocking assay on hMCAM CHO cells, competitor laminin 411; vs rodent 1749
Experimental: as §3

recombinant hMCAM-His [6] = target: T1, recombinant hMCAM-His; assay: competitive ELISA on hMCAM-His, competitor biotinylated rodent or chimeric 1749; vs rodent 1749
[7] = target: T2, human MCAM (melanoma cell adhesion …); assay: laminin/FACS on hMCAM CHO cells, competitor laminin 411; Expt#1; vs rodent 1749
Experimental: as §3

recombinant hMCAM-His [8] = target: T1, recombinant hMCAM-His; assay: competitive ELISA on hMCAM-His, competitor biotinylated rodent or chimeric 2107; Expt. #1; vs rodent 2107
Experimental: as §1

recombinant hMCAM-His [9] = target: T1, recombinant hMCAM-His; assay: ForteBio Octet Red, hMCAM-His analyte; Expt. #1; vs rodent 2107
Experimental: as §2

recombinant hMCAM-His [10] = target: T1, recombinant hMCAM-His; assay: ForteBio Octet Red, hMCAM-His analyte; Forte column 2; vs rodent 2107
Experimental: as §2

recombinant hMCAM-His [11] = target: T1, recombinant hMCAM-His; assay: ForteBio Octet Red, hMCAM-His analyte; Forte column 1; vs rodent 2107
Experimental: as §2

[12] = target: T2, human MCAM (melanoma cell adhesion …); assay: laminin/FACS on hMCAM CHO cells, competitor laminin 411; Expt#2; reference row with 1.0 is chimeric 2107
Experimental: as §3

[13] = target: T2, human MCAM (melanoma cell adhesion …); assay: laminin/FACS on hMCAM CHO cells, competitor laminin 411; Expt#1; vs rodent 2107
Experimental: as §3

recombinant hMCAM-His [14] = target: T1, recombinant hMCAM-His; assay: competitive ELISA on hMCAM-His, competitor biotinylated rodent or chimeric 2107; vs rodent 2107
Experimental: as §1

Binder | fold over rodent (Forte affinity) (recombinant hMCAM-His [2]) | fold reduction in affinity compared to the rodent (recombinant hMCAM-His [3]) | fold over rodent (blocking, laminin/FACS) [4] | fold reduction in potency compared to the rodent [5] | fold over rodent (competitive ELISA) (recombinant hMCAM-His [6]) | fold over rodent (blocking, laminin/FACS) [7] | other results
B1 |  |  |  |  |  |  | fold over rodent (competitive ELISA) (recombinant hMCAM-His [1]): 1.07 fold
B2 | 2.5 fold | < 2 fold | 1.2 fold | < 2 fold | 1 fold | 1.1 fold | 
B3 | 1.2 fold | < 2 fold | 1.8 fold | < 2 fold | 1 fold | 1.5 fold | 
B4 |  |  |  |  |  |  | fold over rodent (competitive ELISA) (recombinant hMCAM-His [8]): 11.7 fold; fold over rodent (Forte affinity) (recombinant hMCAM-His [9]): 5.59 fold
B5 |  |  |  |  |  |  | fold over rodent (Forte affinity) (recombinant hMCAM-His [10]): 5.5 fold; fold over rodent (Forte affinity) (recombinant hMCAM-His [11]): 5.2 fold; fold over rodent (blocking, laminin/FACS) [12]: 2.3 fold; fold over rodent (blocking, laminin/FACS) [13]: 4.8 fold; fold over rodent (competitive ELISA) (recombinant hMCAM-His [14]): 3.5 fold
